Test results published in US20250375505A1, “COMPOSITIONS AND METHODS FOR MODIFYING BILE ACIDS TO REGULATE LIPID AND STEROID METABOLISM” (The Regents of the University of California, priority 2021, published 2025).

What was measured:
[1] = test system: tauro- (TCA, TCDCA) or glyco- (GCA, GCDCA) bile acids; test: Deconjugation by E. coli C41-pLys expressing putative Turicibacter bsh genes (LC-MS); type: cell-based
Description: Control is E. coli with same expression vector but expressing non-bile-modifying gene. d, same as c, but with GCA and GCDCA instead of tauro-bile acids. e, Quantification of percent remaining (compared to media controls) of conjugated bile acid (TCA, TCDCA, GCA, GCDCA) after 24 h growth with E. coli expressing the noted Turicibacter bsh gene. n=3 independent cultures, *p<0.05, **p<0.005, ***p<0.0005 using one sample t-test comparison with 100% remaining. BSH nomenclature indicates homolog group (e.g. III) and isolate of origin (e.g. MOL361).
Conjugation increases bile acid solubility and emulsification ability^45, while deconjugation reverses these effects, leading to decreased dietary lipid absorption. To identify Turicibacter bile salt hydrolase (bsh) genes responsible for the strain-specific differences in bile deconjugation, the study first searched our assembled genomes for annotations of “choloylglycine hydrolase,” the broad category that includes these genes. […] Isolates within the same phylogenetic and phenotypic subgroups largely shared similar sequences (FIG. 11a, b). To assay the function of the strain-specific putative bsh genes, the study cloned and individually expressed one representative sequence from each of the eight putative choloylglycine hydrolase groups in E. coli C41-pLys and measured the ability of these engineered bacteria to perform the deconjugations the study observed in the native Turicibacter. The study cultured the individual E. coli strains to stationary phase in the presence of two tauro-(TCA, TCDCA) or glyco-(GCA, GCDCA) bile acids, then measured their ability to deconjugate these bile acid pools. […] Collectively, these findings reveal that Turicibacter strains contain a range of bile salt hydrolases with deconjugation preferences for different bile acids.
For bile species quantification, an internal spike-in standard of 100 mM chenodeoxycholic acid-D4 (CDCA-D4, Sigma) was added to initial culture supernatants as a normalization reference. Area under the curve from reconstructed ion chromatograms was used to quantify the abundances of each species.

[2] = test system: CA, CDCA, and DCA; conditions: expressed in E. coli C41-pLys
Description: Escherichia coli C41-pLys (Lucigen) was used for characterizing putative bile modification genes, which were expressed off the pET21+plasmid. E. coli was grown acrobically shaking at 37° C. C in Luria Broth (LB, 1% NaCl, 1% tryptone, 0.5% yeast extract) supplemented with 100 μg mL^−1 ampicillin. Expression of genes was induced by addition of 100 μM IPTG.
In vitro characterization of bile transformations by engineered E. coli or B. thetaiotaomicron strains were performed by growing cells in respective media conditions described above supplemented with 0.5 mM (total combined concentration) of the noted bile species. Cells were grown to stationary phase (shaking at 37° C.), then frozen at −80° C. until further processing. Cells were then thawed, pelleted (5 minutes at 16,000×g), and the supernatant was removed to a new microcentrifuge tube. Three volumes of methanol was added, then the mixture was vigorously mixed for 30-60 seconds and incubated (room temperature, 15 minutes). Mixtures were centrifuged (5 minutes, 16,000×g), the supernatant removed to a clean microcentrifuge tube and dried in a vacuum concentrator. The dried residue was treated with methanol/water/formic acid (50/50/0.1, all by volume) then vigorously mixed and centrifuged as described above. […] The effluent from the column was passed through an electrospray ion source (capillary voltage 42V, capillary temperature 275° C., sheath gas flow 15 L min^−1, spray voltage 5 kV, and −15 kV conversion dynode with −1.2 k V multipliers) connected to a linear ion trap mass spectrometer (Thermo LTQ) scanning from m/z 95-1000 in the positive ion mode. Spectra were recorded and analyzed with instrument-manufacturer supplied software. Confirmation of proposed elemental compositions was achieved using the same chromatography and ion source configuration with the spectra recorded by scanning on an orbitrap mass spectrometer (Thermo LTQ XL).

[3] = expressed in E. coli C41-pLys, grown with two tauro- (TCA, TCDCA) or glyco- (GCA, GCDCA) bile acids

Molecule	bile salt hydrolase (deconjugation) activity [1, 3]	also measured
BSH (group III): bile salt hydrolase group III from Turicibacter sanguinis 1E2, SEQ ID NO: 3 (protein, listed as Turicibacter sanguinis) MCTGLCLSTKDGKHLFGRNLDVPASYNQAVQIVPRNFKWLNVATQETITSKYACIAMGIVIDNHPLLFDGVNEKGLAGGGLNFTHFAKFSSTAVKDKISLSASDFVYWVLSTFSSLSELKETLPSVILTSIPFKPDLPVAGLHWIFTDKTGESIVIEYMEDGMHIHDNPVGVLTNDPTFDWQLTNLSQYVTLSCKTPQPEEMGNLLVKPFGHGLGMCGIPGDGSPAARFVRTVFFRDAVVGADDEISGVTAFFNVLSEVTVMKGSEIDPDGSMNFTVYKSAMCQESQTYYYTDYYNRRINAVKLTPDTMNADHITTFPYLGKQDICYQN	moderate activity on TCDCA	–
BSH (group II): bile salt hydrolase group II from Turicibacter sanguinis H121, SEQ ID NO: 2 (protein, listed as Turicibacter sanguinis) MCTGLSLTTKDGKHFFGRNLDVPASYGQSVHIIPRNFNWLNVVNGETLASKYACIGMGIVVDNHPLLFDAVNEKGLAGGGLNFTHFAKFNENAIDGKINISASDFVYWALSNFADLNELRQALENLVLTNIPFEHELPVAGLHWMFTDLSGRSIVIENMADGMHIHENPVGVLTNDPTFDWHLTNLRQYVTLEKATPAPKQMGDLLLHPYGHGLGMCGIPGDASPAARFVRTVFFRDSIVEANDEISGVTAFLNVLTGVTVIKGSEVDPDGSMNYTVYKSAMCQESGTYYYTDYYNRRINAVKLSNANLDSKEITSFPYQGEQDILFQN	activity on TCDCA and GCDCA	bile salt hydrolase (deconjugation) activity ([1]; expressed in E. coli, presented with the combined four bile acids): blunted
7α-HSDH homolog from MOL361: 7-alpha hydroxysteroid dehydrogenase homolog of MOL361, locus tag HLK68_RS02750, SEQ ID NO: 9, expressed in E. coli C41-pLys (protein, listed as Turicibacter sanguinis) MRKLENAIALVTSSTRGIGLACAKKLASEGAIVYMGVRRLEVTQEICDEVAKEGLKMKPVFFDAYNIDSYETMVEEVIREQGKIDILVNNFGTGRPEVDLDLVSGDEKAFFDILEANIGSVYRISKLVIPHMIKQGKGSIVNISSIGGTVPDISRIGYGVSKAGVNNITQQIAMQYARYNIRCNAVLPGLTATDAALDNMPEQFIKSFLSHVPLNRMGTPEDMANAVLFFASDDSSYVTGDIMEVSGGYHLGTPQYADFVGRKVVEEK	–	dehydrogenation of CA ([2]; grown in CA): removed the mass equivalent of two hydrogens from CA; dehydrogenation of CDCA ([2]; grown in CDCA): Background transformation by E. coli prevented clear evidence of CDCA dehydrogenation; dehydrogenation of DCA ([2]; grown in DCA): did not act on DCA
BSH (group I): bile salt hydrolase group I from Turicibacter sanguinis MOL361, SEQ ID NO: 1 (protein, listed as Turicibacter sanguinis) MCTGLSLVTKDNKHLFGRNLDVPATYGQAVHIVPRNYDWFNIVSDETYTSKYACIGMGIVVDRLPLLFDAVNEKGLAGAGLNFTHFAKFNEKAVDGKTNISGSTFLYWALSNFSNLDELKEALKQLIITNIPVKEGLPVAGLHWMFTDLSGKSIVIEYMEDGMHVYDNPVGALTNDPTFPWHLTNLCQYVTLDTKTPAPKQFGEYVAKPFGHGLNMCGIPGDASPAARFVRTVYFRDTVVEADDEVSGVSAFFQVLTGVTVIKGSEIDPNGDMNYTVYKSCMCQESGTYYYTDYKNRRISAVCLSKADLDGKEIISFEYQGKQDILFQN	deconjugates both glyco- and tauro-conjugates	–
BSH (group IV): bile salt hydrolase group IV from Turicibacter sanguinis MOL361, SEQ ID NO: 4 (protein, listed as Turicibacter sanguinis) MCTALSLTAKDGSHLFGRNMDIEYSFNQSILLTPRRFDYKNRATGEMNQTKYAIIGMGTIIDEHPCYAELFNEKGLAAAGLNFPNYAHWDEKAIEGKTNIPPYDLVLWVTSNFETVKEVKEALKDVVLVDVPVNEQTPIAPLHWMICDKTGESIVVEKTVNGLSVMDNKVGVLTNAPTFDWHLTNLTQYMGLTSTQPKDITLGEQELHPLGQGLGAFSLPGDYSSPSRFVKAAFLRNNIDYANVNYSGISEFFHILNGVAMVRGSVVTPQHLNDITLYTSCMDQERGIYYYNTYTNHTISSINMHNEDLDAKEIKSFKFNDEFAVNLQN	tauro-specific	–
